According to patent publication US20260242478A1 (published 2026):
Where no end group is shown, it is not given here.

B1: Peptide-126 (peptide)
peptide: YCEGHLPEYREKCL
modifications: not fully specified; cysteine pairing not given here; also: biotinylated, site not given here
B2: Peptide-127 (peptide)
peptide: YCEGHLPEYLAKCL
modifications: not fully specified; cysteine pairing not given here; also: biotinylated, site not given here
B3: Phage-472 (peptide)
peptide: DCPWLSGFSRPLLC
notes: Clonal phage supernatant; also called Peptide-93; not shown: fused to the pIII filament protein of the bacteriophage
B4: Phage-468 (peptide)
peptide: YWYCSPSIVRCVLV
notes: Clonal phage supernatant; also called Peptide-89; not shown: fused to the pIII filament protein of the bacteriophage
B5: Phage-465 (peptide)
peptide: DCWWMFESYPGRCI
modifications: cysteine pairing not given here; also: displayed as fusion to phage pIII, linker and pIII sequence not given here
notes: Clonal phage supernatant; also called Peptide-86; not shown: fused to the pIII filament protein of the bacteriophage
B6: Phage-470 (peptide)
peptide: WICDKSGSIMLCRA
notes: Clonal phage supernatant; also called Peptide-91; not shown: fused to the pIII filament protein of the bacteriophage
B7: Phage-466 (peptide)
peptide: YCAGHAWQYINKCL
modifications: cysteine pairing not given here; also: displayed as fusion to phage pIII, linker and pIII sequence not given here
notes: Clonal phage supernatant; also called Peptide-87; not shown: fused to the pIII filament protein of the bacteriophage
B8: Phage-464 (peptide)
peptide: WCWDYKLWVPMTCP
modifications: cysteine pairing not given here; also: displayed as fusion to phage pIII, linker and pIII sequence not given here
notes: Clonal phage supernatant; also called Peptide-85; not shown: fused to the pIII filament protein of the bacteriophage

Tests used:
[1] = molecular target: anti-CD28 Fab; experiment: competition ELISA, peptide titrated 0-100 uM against 1 nM anti-CD28 Fab, plate-bound CD28 as competitor
Target sequence in this assay (VH, as listed by the source, chain 1 of 2): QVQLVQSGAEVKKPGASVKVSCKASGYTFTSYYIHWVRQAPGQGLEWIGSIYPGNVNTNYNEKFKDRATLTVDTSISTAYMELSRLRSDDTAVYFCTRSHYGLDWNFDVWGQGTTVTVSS
Target sequence in this assay (VL, as listed by the source, chain 2 of 2): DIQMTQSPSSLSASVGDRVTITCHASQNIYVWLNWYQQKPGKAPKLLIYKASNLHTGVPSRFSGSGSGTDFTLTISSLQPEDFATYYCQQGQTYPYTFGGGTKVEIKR

[2] = molecular target: T1, Anti-PSMA Fab (SEQ ID NOs: 19, 20); experiment: phage ELISA; clonal phage supernatant on biotinylated PSMA Fab captured on neutravidin plates, anti-M13 HRP detection
T1 construct: also called 006 PSMA Fab
Experimental: (§1) Clonal phage were harvested as crude supernatants and screened via standard ELISAs. […] Prior to the addition of clonal phage. wells were incubated with blocking buffer and PSMA antigen or blocking buffer alone. Without washing or aspirating, clonal phage supernatants were then added to the wells and incubated for a short time. Wells were then washed followed by detection of bound phage using a horse radish conjugated anti-M13 antibody.

[3] = molecular target: T1, Anti-PSMA Fab (SEQ ID NOs: 19, 20); experiment: phage ELISA; clonal phage on captured PSMA Fab pre-incubated with PSMA antigen as competitor, anti-M13 HRP detection
Experimental: as §1

[4] = molecular target: anti-CD28 Fab; experiment: BLI (Octet): biotinylated peptide on streptavidin sensor, anti-CD28 Fab titrated in solution, 1:1 model
Target sequence in this assay (VH, as listed by the source, chain 1 of 2): as the sequence (VH, as listed by the source, chain 1 of 2) above
Target sequence in this assay (VL, as listed by the source, chain 2 of 2): as the sequence (VL, as listed by the source, chain 2 of 2) above

[5] = molecular target: T2, Anti-CD28 Fab (SEQ ID NOs: 696, 697); experiment: phage binding ELISA on captured anti-CD28 Fab; competitor CD28 antigen
T2 construct: Biotinylated and captured on neutravidin coated plates in the phage ELISA
Experimental: (§2) Clonal phage were harvested as crude supematants and screened via standard ELISAs. […] Prior to the addition of clonal phage, wells were incubated with blocking buffer and CD28 antigen or blocking buffer alone. Without washing or aspirating, clonal phage supematants were then added to the wells and incubated for a short time. Wells were then washed followed by detection of bound phage using a horse radish conjugated anti-M13 antibody.

[6] = molecular target: T2, Anti-CD28 Fab (SEQ ID NOs: 696, 697); experiment: phage binding ELISA; biotinylated anti-CD28 Fab on neutravidin plate, anti-M13 HRP detection
Experimental: as §2

T2 sequence (VH, as listed by the source, chain 1 of 2): as the sequence (VH, as listed by the source, chain 1 of 2) above
T2 sequence (VL, as listed by the source, chain 2 of 2): as the sequence (VL, as listed by the source, chain 2 of 2) above

Row | Binder | IC50 [1] [nM] | Phage binding ELISA, Anti-PSMA Fab (SEQ ID NOs: 19, 20) signal [2] | Phage binding ELISA, Anti-PSMA Fab signal in the presence of PSMA [3] | other results
1 | HCSGHHWLQVWKCF [Peptide-130] | > 100000 | – | – | –
2 | YCEGHEGIYFWKCL [Peptide-119] | 77700 | – | – | –
3 | QCVWDRGTWWMACD [Phage-1759] | – | 0.414 | 0.052 | –
4 | YCEGHLPEYIEKCL (cysteine pairing not given here; also: biotinylated, site not given here) | – | – | – | Kd [4]: 926 nM; koff [4]: 0.0239 s⁻¹; kon [4]: 25800 M⁻¹ s⁻¹; t1/2 [4]: 30 s
5 | B1 | – | – | – | t1/2 [4]: 36 s
6 | QCTWNEKTWWMECE [Phage-1754] | – | 1.35 | 0.0568 | –
7 | MCQWDELNYWMDCD [Phage-1752] | – | 1.65 | 0.0565 | –
8 | MEYCSFHRFTCVLW [Phage-1743] | – | 1.93 | 0.116 | –
9 | QCVWDLTNYWMNCD [Phage-1756] | – | 1.3 | 0.057 | –
10 | B2 | – | – | – | Kd [4]: 44.7 nM; t1/2 [4]: 60 s
11 | QLPCHYWGEWCPQA [Phage-1745] | – | 1.39 | 0.0537 | –
12 | SKLLCVPPWMCYHV [Phage-1744] | – | 0.806 | 0.0794 | –
13 | B3 | – | – | – | Anti-CD28 Fab signal in the presence of CD28 [5]: 0.07; Anti-CD28 Fab (SEQ ID NOs: 696, 697) signal [6]: 1.27
14 | YCEGHAPEYIAKCL (cysteine pairing not given here; also: biotinylated, site not given here) | – | – | – | Kd [4]: 831 nM; koff [4]: 0.028 s⁻¹; kon [4]: 33700 M⁻¹ s⁻¹; t1/2 [4]: 24 s
15 | FWECYSSFCRFVEG [Phage-1746] | – | 1.46 | 0.139 | –
16 | B4 | – | – | – | Anti-CD28 Fab signal in the presence of CD28 [5]: 0.09; Anti-CD28 Fab (SEQ ID NOs: 696, 697) signal [6]: 1.51
17 | YCEGHLPEYIEKCL | 360 | – | – | –
18 | YCEGHAPEYIGKCL [Peptide-136] | 4120 | – | – | –
19 | YCEGHAPEYIWKCL [Peptide-123] | 1320 | – | – | –
20 | YCEGHLPEYIWKCL [Peptide-135] | 630 | – | – | –
21 | YCEGHAPEYIRKCL [Peptide-122] | 2220 | – | – | –
22 | YCEGHAPEYIAKCL | 480 | – | – | –
23 | B5 | – | – | – | Anti-CD28 Fab signal in the presence of CD28 [5]: 0.07; Anti-CD28 Fab (SEQ ID NOs: 696, 697) signal [6]: 1.65

Row | Binder | IC50 [1] [nM] | Phage binding ELISA, Anti-PSMA Fab (SEQ ID NOs: 19, 20) signal [2] | Phage binding ELISA, Anti-PSMA Fab signal in the presence of PSMA [3] | other results
24 | B6 | – | – | – | Anti-CD28 Fab signal in the presence of CD28 [5]: 0.06; Anti-CD28 Fab (SEQ ID NOs: 696, 697) signal [6]: 0.91
25 | DCHWNKATWWMDCE [Phage-1757] | – | 1.18 | 0.0828 | –
26 | YCEGHSQEYLWKCL [Peptide-128] | 9660 | – | – | –
27 | YCWSHSPPFIKKCY [Peptide-131] | > 100000 | – | – | –
28 | MCFVTGWGVPDDCN [Phage-1758] | – | 0.638 | 0.0694 | –
29 | LTRCVPDWMCYRAV [Phage-1748] | – | 1.17 | 0.0708 | –
30 | YCEGHSSEYIQKCL [Peptide-129] | 3180 | – | – | –
31 | HCLWHESSGRVLCF [Phage-1742] | – | 2.15 | 0.0678 | –
32 | YCEGHLPEYLGKCL [Peptide-125] | 830 | – | – | –
33 | YCEGHLPEYLAKCL | 300 | – | – | –
34 | B7 | – | – | – | Anti-CD28 Fab signal in the presence of CD28 [5]: 0.07; Anti-CD28 Fab (SEQ ID NOs: 696, 697) signal [6]: 0.64
35 | WCWVQDDRRHVVCG [Phage-1751] | – | 1.19 | 0.0549 | –
36 | MCQWDKINYWMDCD [Phage-1755] | – | 1.81 | 0.049 | –
37 | ILPCHWYTSDCPQH (also called Peptide-200) [Phage-1750] | – | 1.63 | 0.117 | –
38 | QCVWDNFNYWMDCD [Phage-1753] | – | 0.772 | 0.0667 | –
39 | B8 | – | – | – | Anti-CD28 Fab signal in the presence of CD28 [5]: 0.11; Anti-CD28 Fab (SEQ ID NOs: 696, 697) signal [6]: 2.51
40 | YCEGHSQENIWKCL [Peptide-124] | 4070 | – | – | –
41 | YCEGHLPEYLEKCV [Peptide-133] | 2900 | – | – | –
42 | YCEGHSPEYILKCL [Peptide-117] | 1530 | – | – | –
43 | YCEGHRPEYILKCL [Peptide-118] | 13300 | – | – | –
44 | PLCGTEEVWWECRL [Phage-1747] | – | 1.78 | 0.0826 | –
45 | YCWVDADMWLIFRC [Phage-1749] | – | 1.01 | 0.275 | –
